Reference: patent publication US20240116985A1, “STAPLED PEPTIDES AND METHODS THEREOF” (priority 2020, published 2024)
Starred links: 1 amine or outer side, 2 acyl side, 3 side chain; linkers in the order of their positions; H or OH if unused. Positions of bridges follow the written chain, without caps; N, C: chain ends. Non-standard residues stand in square brackets, D forms with d. Primed or numbered codes have the meaning given here. *: point of attachment. PyrS2″ = (S)-3-amino-1-((pent-4-en-1-yloxy)carbonyl)pyrrolidine-3-carboxylic acid (stapling residue), C=CCCCOC(=O)N1CC[C@@](N[*:1])(C(=O)[*:2])C1; B5(4) = 2,2-bis(4-pentenyl)glycine = 2-amino-2-(pent-4-en-1-yl)hept-6-enoic acid (stitching residue), C=CCCCC(CCCC=C)(N[*:1])C(=O)[*:2]; B5(5) = 2,2-bis(4-pentenyl)glycine, 2-amino-2-(pent-4-en-1-yl)hept-6-enoic acid (stitching residue), C=CCCCC(CCCC=C)(N[*:1])C(=O)[*:2]; B5(33) = 2-amino-2-(pent-4-en-1-yl)hept-6-enoic acid (bis-pentenylglycine, two olefin side chains), C=CCCCC(CCCC=C)(N[*:1])C(=O)[*:2]; PyrS2 = (S)-3-amino-1-((pent-4-en-1-yloxy)carbonyl)pyrrolidine-3-carboxylic acid, C=CCCCOC(=O)N1CC[C@@](N[*:1])(C(=O)[*:2])C1; (Me2diaminobutane)GlnR = N5-methyl-N5-(4-(methylamino)butyl)-L-glutamine, CN(CCCCN(C)[*:3])C(=O)CC[C@H](N[*:1])C(=O)[*:2]; 5IndA = (S)-2-amino-3-(2,3-dihydro-1H-inden-5-yl)propanoic acid, O=C([C@H](Cc1ccc2c(c1)CCC2)N[*:1])[*:2]; (NMe2)GlnR″ = [NMe2]GlnR: N5,N5-dimethyl-L-glutamine, CN(C)C(=O)CC[C@H](N[*:1])C(=O)[*:2]; B5(3) = 2,2-bis(4-pentenyl)glycine (stitching residue), C=CCCCC(CCCC=C)(N[*:1])C(=O)[*:2]; S10 = (S)-2-amino-2-methyldodec-11-enoic acid, C=CCCCCCCCC[C@](C)(N[*:1])C(=O)[*:2]; (NMe2)GlnR = N5,N5-dimethyl-L-glutamine, CN(C)C(=O)CC[C@H](N[*:1])C(=O)[*:2]; mPEG2 = N-terminal 3-(2-methoxyethoxy)propanoic acid, COCCOCCC(=O)*; Phe(3-COOH) = N[C@@H](Cc1cccc(C(=O)O)c1)C(=O)O; Phe(2-CF3) = N[C@@H](Cc1ccccc1C(F)(F)F)C(=O)O; Phe(3,4-Me2) = Cc1ccc(C[C@H](N)C(=O)O)cc1C; Phe(3-Br) = N[C@@H](Cc1cccc(Br)c1)C(=O)O; Phe(2-Cl) = N[C@@H](Cc1ccccc1Cl)C(=O)O; 1Nal = N[C@@H](Cc1cccc2ccccc12)C(=O)O; 2Nal = N[C@@H](Cc1ccc2ccccc2c1)C(=O)O; Bta = N[C@@H](Cc1csc2ccccc12)C(=O)O; Isobutyloxycarbonyl = CC(C)COC(=O)*; αAllylPro = C=CC[C@@]1(C(=O)O)CCCN1; tBuAla = CC(C)(C)C[C@H](N)C(=O)O; 3Thi = N[C@@H](Cc1ccsc1)C(=O)O; S8 = C=CCCCCCC[C@](C)(N)C(=O)O; Thr(ol) = C[C@@H](O)[C@H](N)CO; Propanoyl(3-OMe) = COCCC(=O)*; Leu(ol) = CC(C)C[C@H](N)CO; 2F3MeF″ = Phe derivative; Octanoyl = CCCCCCCC(=O)*; Dab = NCC[C@H](N)C(=O)O; Alaol = C[C@@H](CO)N*; Ms = CS(=O)(=O)*

B1: I-1266 (peptide)
peptide: Ac-[αAllylPro]D[tBuAla][B5(5)]DTAA[1Nal]T[PyrS2″]F[Bta]S-NH2
modifications: staple 1-4, 4-11
B2: I-1251 (peptide)
peptide: Ac-[αAllylPro]D[tBuAla][B5(4)]DDAAFL[PyrS2″][Phe(2-Cl)][Bta][Leu(ol)]
modifications: staple 1-4, 4-11
B3: I-1250 (peptide)
peptide: Ac-[αAllylPro]D[tBuAla][B5(4)]DDAAFL[PyrS2″][Phe(2-Cl)][Bta]-Alaol
modifications: staple 1-4, 4-11
B4: I-1262 (peptide)
peptide: Ac-[αAllylPro]D[tBuAla][B5(33)]DDAAFT[S10][Phe(2-Cl)][Bta]T-NH2
modifications: staple 1-4, 4-11
B5: I-1265 (peptide)
peptide: Ac-[αAllylPro]D[tBuAla][B5(33)]DTALFT[PyrS2]F[Bta]S-NH2
modifications: staple 1-4, 4-11
B6: I-1264 (peptide)
peptide: Ac-[αAllylPro]D[tBuAla][B5(33)]DTLAFT[PyrS2]F[Bta]S-NH2
modifications: staple 1-4, 4-11
B7: I-1260 (peptide)
peptide: XDXXDDAAFTXFXQ
modifications: not fully specified; MeSO2-PL3-Asp-Npg-B5-Asp-Asp-Ala-Ala-Phe-Thr-S8-2C1F-BztA-Gln-NH2; stapled by olefin metathesis (PL3-B5 and B5-S8)
B8: I-1255 (peptide)
peptide: mPEG2-[αAllylPro]D[tBuAla][B5(33)]DDAAFT[S8][Phe(2-Cl)][Bta]Q-NH2
modifications: staple 1-4, 4-11
B9: I-1267 (peptide)
peptide: Ac-[αAllylPro]D[tBuAla][B5(5)]DTAA[2Nal]T[PyrS2″]F[Bta]S-NH2
modifications: staple 1-4, 4-11
B10: I-1249 (peptide)
peptide: Ac-[αAllylPro]D[tBuAla][B5(4)]DDAAFL[PyrS2″][Phe(2-Cl)][Bta][Thr(ol)]
modifications: staple 1-4, 4-11
B11: I-1254 (peptide)
peptide: Octanoyl-[αAllylPro]D[tBuAla][B5(4)]DDAAFT[S8][Phe(2-Cl)][Bta]Q-NH2
modifications: staple 1-4, 4-11
B12: I-1261 (peptide)
peptide: {Propanoyl(3-OMe)}-[αAllylPro]D[tBuAla][B5(33)]DDAAFT[S8][Phe(2-Cl)][Bta]Q-NH2
modifications: staple 1-4, 4-11
B13: I-1263 (peptide)
peptide: Ac-[αAllylPro]D[tBuAla][B5(33)]DTAAFT[PyrS2]F[Bta]S-NH2
modifications: staple 1-4, 4-11
B14: I-2301 (peptide)
peptide: Ac-[αAllylPro]D[tBuAla][B5(4)]D[Phe(3-COOH)][(Me2diaminobutane)GlnR]AFV[PyrS2″][3Thi][Bta]A-NH2
modifications: staple 1-4, 4-11
B15: I-2305 (peptide)
peptide: Isobutyloxycarbonyl-[αAllylPro]D[tBuAla][B5(4)]D[Phe(3-COOH)]AAFL[PyrS2″][Phe(2-Cl)][Bta]A-NH2
modifications: staple 1-4, 4-11
B16: I-2294 (peptide)
peptide: Ac-[αAllylPro]D[tBuAla][B5(4)]D[Phe(3-COOH)]QAFL[PyrS2][Phe(2-CF3)][Phe(3,4-Me2)]A-NH2
modifications: staple 1-4, 4-11
B17: I-2299 (peptide)
peptide: Ac-[αAllylPro]D[tBuAla][B5(4)]D[Phe(3-COOH)][(NHEt)GlnR]AFL[PyrS2″][2F3MeF″][Bta][(NHEt)GlnR]-NH2
modifications: staple 1-4, 4-11
B18: I-2298 (peptide)
peptide: Ac-[αAllylPro]D[tBuAla][B5(4)]D[Phe(3-COOH)]QAFL[PyrS2″][Phe(2-CF3)][5IndA]A-NH2
modifications: staple 1-4, 4-11
B19: I-2307 (peptide)
peptide: Ac-[αAllylPro]D[tBuAla][B5(4)]D[Phe(3-COOH)]AAFL[PyrS2″][3Thi][Phe(3-Br)]Q-NH2
modifications: staple 1-4, 4-11
B20: I-2303 (peptide)
peptide: Ac-[αAllylPro]D[tBuAla][B5(4)]D[Phe(3-COOH)][(NMe2)GlnR]AFV[PyrS2″][3Thi][Bta]A-NH2
modifications: staple 1-4, 4-11
B21: I-2296 (peptide)
peptide: Ac-[αAllylPro]D[tBuAla][B5(4)]D[Phe(3-COOH)]QAFV[PyrS2][3Thi][5IndA]A-NH2
modifications: staple 1-4, 4-11
B22: I-2300 (peptide)
peptide: Ac-[αAllylPro]D[tBuAla][B5(4)]D[Phe(3-COOH)][(NMe2)GlnR″]AFL[PyrS2″][2F3MeF″][Bta][(NMe2)GlnR″]-NH2
modifications: staple 1-4, 4-11
B23: I-2302 (peptide)
peptide: Ac-[αAllylPro]D[tBuAla][B5(4)]D[Phe(3-COOH)][(NHEt)GlnR]AFV[PyrS2″][3Thi][Bta]A-NH2
modifications: staple 1-4, 4-11
B24: I-531 (peptide)
peptide: Ac-[αAllylPro]DA[B5(4)][Dab](Ms)EAAFN[S8]F[Bta]Q-NH2
modifications: staple 1-4, 4-11
B25: I-532 (peptide)
peptide: Ac-[αAllylPro]DA[B5(4)][Dab](Ms)EAAFN[S8]F[Bta]Q-NH2
modifications: staple 1-4, 4-11

target: full-length beta-Catenin (Uniprot ID P35222) (Homo sapiens (Human)) (UniProt P35222); experiment: fluorescence polarization competition, competitor 5FAM-TCF4 10-53
Target sequence in this assay (P35222 2-781 limits assumed): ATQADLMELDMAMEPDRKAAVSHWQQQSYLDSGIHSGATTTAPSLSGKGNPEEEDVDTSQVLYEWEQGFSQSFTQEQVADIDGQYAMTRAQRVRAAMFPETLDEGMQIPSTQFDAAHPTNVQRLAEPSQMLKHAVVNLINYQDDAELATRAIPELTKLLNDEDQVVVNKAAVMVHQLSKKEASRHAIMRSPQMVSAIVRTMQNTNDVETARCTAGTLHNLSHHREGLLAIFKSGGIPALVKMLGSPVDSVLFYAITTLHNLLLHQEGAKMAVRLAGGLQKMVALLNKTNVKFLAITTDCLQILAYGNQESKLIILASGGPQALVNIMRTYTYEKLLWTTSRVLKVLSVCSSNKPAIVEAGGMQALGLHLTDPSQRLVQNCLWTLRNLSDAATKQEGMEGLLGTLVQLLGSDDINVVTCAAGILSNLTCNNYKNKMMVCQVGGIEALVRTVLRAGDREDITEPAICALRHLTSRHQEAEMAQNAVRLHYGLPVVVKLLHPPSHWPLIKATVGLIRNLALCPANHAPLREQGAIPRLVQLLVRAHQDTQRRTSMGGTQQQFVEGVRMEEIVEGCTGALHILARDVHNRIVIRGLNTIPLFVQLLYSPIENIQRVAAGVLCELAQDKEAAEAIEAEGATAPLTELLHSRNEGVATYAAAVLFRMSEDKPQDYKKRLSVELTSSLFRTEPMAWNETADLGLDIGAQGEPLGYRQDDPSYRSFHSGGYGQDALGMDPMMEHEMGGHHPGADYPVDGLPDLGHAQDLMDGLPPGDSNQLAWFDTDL

| Binder | IC50 [nM] |
| --- | --- |
| B1 | 755 |
| B2 | 1940 |
| B3 | 31 |
| B4 | 1120 |
| B5 | 152 |
| B6 | 157 |
| B7 | 23 |
| B8 | 32 |
| B9 | 181 |
| B10 | 17 |
| B11 | 530 |
| B12 | 31 |
| B13 | 43 |

target: full-length beta-Catenin (Uniprot ID P35222) (Homo sapiens (Human)) (UniProt P35222); experiment: FP competition: displacement of 5FAM-TCF4(10-53) from full-length beta-catenin
Target sequence in this assay (P35222 whole entry, one chain of several): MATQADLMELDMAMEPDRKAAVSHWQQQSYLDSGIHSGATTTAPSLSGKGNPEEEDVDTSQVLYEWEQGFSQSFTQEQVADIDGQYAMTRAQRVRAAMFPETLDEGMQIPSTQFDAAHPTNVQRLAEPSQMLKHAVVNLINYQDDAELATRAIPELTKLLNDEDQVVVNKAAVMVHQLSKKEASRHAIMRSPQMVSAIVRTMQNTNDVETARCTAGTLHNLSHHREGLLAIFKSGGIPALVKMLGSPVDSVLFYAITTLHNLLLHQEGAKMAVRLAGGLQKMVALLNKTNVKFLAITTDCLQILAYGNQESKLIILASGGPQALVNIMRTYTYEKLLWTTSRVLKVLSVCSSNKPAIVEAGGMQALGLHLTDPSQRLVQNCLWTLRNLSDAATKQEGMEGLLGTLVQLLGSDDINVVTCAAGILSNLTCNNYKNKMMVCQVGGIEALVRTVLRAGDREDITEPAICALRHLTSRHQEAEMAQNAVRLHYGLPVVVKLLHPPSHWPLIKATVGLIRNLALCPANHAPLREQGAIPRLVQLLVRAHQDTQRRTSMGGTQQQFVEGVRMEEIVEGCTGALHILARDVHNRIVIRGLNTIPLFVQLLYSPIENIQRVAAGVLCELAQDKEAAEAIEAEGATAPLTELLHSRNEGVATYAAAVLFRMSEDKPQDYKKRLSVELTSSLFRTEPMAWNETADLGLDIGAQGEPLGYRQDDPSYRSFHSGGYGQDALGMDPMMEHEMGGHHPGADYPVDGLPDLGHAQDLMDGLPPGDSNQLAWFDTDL

| Binder | EC50 [nM] |
| --- | --- |
| B2 | 1940 |
| B3 | 31 |
| B8 | 32 |
| B10 | 17 |
| B11 | 530 |

target: Bcat-Halo (UniProt P35222); experiment: NanoBRET Abs IC50, HEK293 cells, Bcat-Halo / TCF4-Luc
Sequence (P35222 whole entry): as the sequence (P35222 whole entry, one chain of several) above

| Binder | IC50 [nM] |
| --- | --- |
| B14 | > 20000 |
| B15 | > 20000 |
| B16 | 4600 |
| B17 | 5200 |
| B18 | 4600 |
| B19 | 8900 |
| B20 | 1200 |
| B21 | 5100 |
| B22 | 1200 |
| B23 | 2500 |

target: full-length beta-Catenin (Uniprot ID P35222) (Homo sapiens (Human)) (UniProt P35222); experiment: fluorescence polarization competition; full-length beta-catenin + 5FAM-TCF4(10-53) probe
Target sequence in this assay (P35222 whole entry, one chain of several): as above

| Binder | EC50 [nM] |
| --- | --- |
| B1 | 755 |
| B4 | 1120 |
| B5 | 152 |
| B6 | 157 |
| B7 | 23 |
| B9 | 181 |
| B12 | 31 |
| B13 | 43 |

target: full-length beta-Catenin (Uniprot ID P35222) (Homo sapiens (Human)) (UniProt P35222); experiment: fluorescence polarization competition; 10 nM full-length beta-catenin + 10 nM 5FAM-TCF4(10-53) probe
Target sequence in this assay (P35222 whole entry, one chain of several): as above

| Binder | EC50 [nM] |
| --- | --- |
| B24 | 5000 |
| B25 | 5000 |

target: full-length beta-Catenin (Uniprot ID P35222) (Homo sapiens (Human)) (UniProt P35222); experiment: FP competition: full-length beta-catenin 10 nM + 5FAM-TCF4(10-53) 10 nM
Target sequence in this assay (P35222 whole entry, one chain of several): as above

| Binder | IC50 [nM] |
| --- | --- |
| B24 | 5000 |
| B25 | 5000 |

target: full-length beta-Catenin (Uniprot ID P35222) (Homo sapiens (Human)) (UniProt P35222); experiment: fluorescence polarization competition against 5FAM-TCF4(10-53), full-length beta-catenin
Target sequence in this assay (P35222 whole entry, one chain of several): as above

| Binder | IC50 [nM] |
| --- | --- |
| B14 | 5 |
| B15 | 65 |
| B16 | 16 |
| B17 | 7 |
| B18 | 8 |
| B19 | 16 |
| B20 | 5 |
| B21 | 6 |
| B22 | 6 |
| B23 | 5 |
